US9789176

Target: CD40 (from R&D systems) (UniProt P25942)
Sequence of UniProt P25942 (P25942 21-193 limits assumed): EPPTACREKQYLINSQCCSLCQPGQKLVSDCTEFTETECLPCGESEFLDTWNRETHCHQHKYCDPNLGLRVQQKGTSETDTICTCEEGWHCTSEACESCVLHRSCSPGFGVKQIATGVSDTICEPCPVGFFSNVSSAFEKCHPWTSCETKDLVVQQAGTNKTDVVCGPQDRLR

Substance: toxic shock syndrome toxin-1 (TSST-1), native / wild-type (from UniProt P06886 41-234) (other; other documents disagree on this pair)
- Kd: 2700 nM
